Legend:
[1] = target: T1, human vascular endothelial growth factor receptor-2 Fc chimera (KDR-Fc) (human, UniProt P35968 20-764); experiment: binding to 1 nM KDR-Fc, % of input; radioactive equilibrium binding (assay not given)
T1 construct: range 1-764; also called human VEGFR-2; hKDR; not shown: human IgG1 Fc
Method: (§1) To prepare ³⁵S-labeled binding proteins for analysis, mRNA was prepared as described above for RNA-protein fusion production but the linker ligation step was omitted. The mRNA was expressed using rabbit reticulocyte lysate translation kit (Ambion) in the presence of ³⁵S-labeled Met at 30° C. for 1 hour. Expressed protein was purified on M2-agarose Flag beads (Sigma) as described above. This procedure produced the encoded protein without the nucleic acid tail. In a direct binding assay, VEGF-R2-Fc fusions in concentrations ranging from 0 to 200 nM were added to a constant concentration of the purified protein (0.2 or 0.5 nM) and incubated at 30° C. for 1 hour in buffer B. The receptor-binder complexes were captured using Protein A magnetic beads for another 10 minutes at room temperature using a Kingfisher™ The beads were washed with six reaction volumes of buffer B. The protein was eluted from the beads with 100 μL of 0.1 M KOH. […] of the reaction mixture and elution were dried onto a LumaPlate-96 (Packard) and the amount of ³⁵S on the plate was measured using a TopCount NXT instrument (Packard). The amount of fibronectin-based scaffold protein bound to the target was estimated as a percent of radioactivity eluted from Protein A magnetic beads compare to radioactivity in the reaction mixture. Nonspecific binding of fibronectin-based scaffold proteins to the beads was determined by measuring binding in the absence of KDR-Fc and represented less than 1-2% of the input. Specific binding was obtained through subtraction of nonspecific binding from total binding. Data was analyzed using the GraphPad Prizm software (GraphPad Software, Inc, San Diego, Calif.), fitted using a one site, non-linear binding equation.
T1 sequence (P35968 20-764 limits assumed, change not shown, form in doubt): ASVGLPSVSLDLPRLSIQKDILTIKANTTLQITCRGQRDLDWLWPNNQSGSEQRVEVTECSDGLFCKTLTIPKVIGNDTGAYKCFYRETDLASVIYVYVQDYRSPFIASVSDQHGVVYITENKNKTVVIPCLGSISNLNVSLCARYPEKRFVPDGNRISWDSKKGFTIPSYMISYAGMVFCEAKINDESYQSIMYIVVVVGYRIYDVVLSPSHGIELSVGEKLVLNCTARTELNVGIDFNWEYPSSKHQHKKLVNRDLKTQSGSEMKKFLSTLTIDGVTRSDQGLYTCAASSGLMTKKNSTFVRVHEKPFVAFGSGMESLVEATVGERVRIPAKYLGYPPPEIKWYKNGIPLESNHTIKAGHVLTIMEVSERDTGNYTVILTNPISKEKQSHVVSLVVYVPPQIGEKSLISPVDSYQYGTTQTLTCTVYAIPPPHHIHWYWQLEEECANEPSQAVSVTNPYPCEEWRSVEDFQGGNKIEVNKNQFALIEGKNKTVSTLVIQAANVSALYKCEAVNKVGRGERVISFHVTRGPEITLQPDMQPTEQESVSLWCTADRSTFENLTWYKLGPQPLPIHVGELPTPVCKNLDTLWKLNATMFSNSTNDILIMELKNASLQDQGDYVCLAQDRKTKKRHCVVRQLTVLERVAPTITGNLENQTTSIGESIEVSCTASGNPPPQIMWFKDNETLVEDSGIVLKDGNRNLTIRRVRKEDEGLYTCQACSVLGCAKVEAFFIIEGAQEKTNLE

[2] = target: T2, mouse vascular endothelial growth factor receptor-2 Fc chimera (Flk-1-Fc) (mouse, UniProt P35918 20-762); experiment: binding to 1 nM Flk-1-Fc, % of input; radioactive equilibrium binding (assay not given)
T2 construct: Purchased from R&D Systems; also called mouse VEGF-R2; not shown: Fc part of the purchased chimera
Method: as §1
T2 sequence (P35918 20-762, change not shown): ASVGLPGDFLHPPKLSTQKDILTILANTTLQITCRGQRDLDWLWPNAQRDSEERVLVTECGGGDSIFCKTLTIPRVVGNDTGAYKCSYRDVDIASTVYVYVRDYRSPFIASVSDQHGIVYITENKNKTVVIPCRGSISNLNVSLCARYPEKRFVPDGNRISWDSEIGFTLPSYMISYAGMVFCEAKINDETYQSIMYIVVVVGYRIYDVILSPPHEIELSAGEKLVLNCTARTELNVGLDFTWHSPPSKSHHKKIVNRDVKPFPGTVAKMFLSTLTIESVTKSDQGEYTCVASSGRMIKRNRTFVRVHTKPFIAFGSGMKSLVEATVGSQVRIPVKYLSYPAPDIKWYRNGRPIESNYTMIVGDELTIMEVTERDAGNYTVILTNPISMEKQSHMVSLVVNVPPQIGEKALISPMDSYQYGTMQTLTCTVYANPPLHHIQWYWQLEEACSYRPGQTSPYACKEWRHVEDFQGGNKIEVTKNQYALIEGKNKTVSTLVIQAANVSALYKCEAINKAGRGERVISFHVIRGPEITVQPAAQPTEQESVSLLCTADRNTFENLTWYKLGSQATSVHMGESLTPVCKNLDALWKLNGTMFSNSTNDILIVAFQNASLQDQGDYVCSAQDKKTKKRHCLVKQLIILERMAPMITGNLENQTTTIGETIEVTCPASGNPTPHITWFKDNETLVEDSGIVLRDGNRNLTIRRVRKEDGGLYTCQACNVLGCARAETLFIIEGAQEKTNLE

[3] = target: T3, human vascular endothelial growth factor receptor-2 Fc chimera (KDR-Fc) (human, UniProt P35968 20-764); experiment: radioactive equilibrium binding assay
T3 construct: range 1-764; purchased from R&D Systems; also called hKDR; human VEGF-R2-Fc; not shown: human IgG1 Fc
Method: as §1
T3 sequence (P35968 20-764 limits assumed, change not shown, form in doubt): as the sequence (P35968 20-764 limits assumed, change not shown, form in doubt) above

[4] = target: T4, mouse vascular endothelial growth factor receptor-2 Fc chimera (Flk-1-Fc) (mouse, UniProt P35918 20-762); experiment: radioactive equilibrium binding assay
T4 construct: purchased from R&D Systems; also called mouse VEGF-R2-Fc; not shown: Fc part of the purchased chimera
Method: as §1
T4 sequence (P35918 20-762, change not shown): as the sequence (P35918 20-762, change not shown) above

[5] = target: T5, human vascular endothelial growth factor receptor-2 Fc chimera (KDR-Fc) (human, UniProt P35968 20-764); experiment: radioactive equilibrium binding, KDR-Fc
T5 construct: range 1-764; also called human VEGFR-2; VEGF-R2-Fc; not shown: human IgG1 Fc
Method: as §1
T5 sequence (P35968 20-764 limits assumed, change not shown, form in doubt): as the sequence (P35968 20-764 limits assumed, change not shown, form in doubt) above

[6] = target: T5, human vascular endothelial growth …; experiment: radioactive equilibrium binding, 1 nM KDR-Fc
Summary of the method: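 ³⁵S-Met-labeled binder protein, made by reticulocyte-lysate translation and Flag-purified, held at 0.2 or 0.5 nM with receptor-Fc (0–200 nM) for 1 h at 30° C in buffer B. Complexes captured on Protein A beads, washed, KOH-eluted. Bound signal given as % of input radioactivity minus bead-only background; one-site fit.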

Row | Binder | Kd [5] | Binding to 1 nM KDR, % [6] | further results
1 | E23 (designed binder, Del 1-8 10Fn3 clone; Flag tag not included) EVVAATPTSLLISWRHHPHFPTRYYRITYGETGGNSPVQEFTVPLQPPTATISGLKPGVDYTITGYAVTVHWNGRELMTPISINYRT |  |  | Binding to 1 nM KDR, % [1]: 36%; Binding to 1 nM FLK, % [2]: 7%
2 | E8 (designed binder, Del 1-8 10Fn3 clone; Flag tag of the radioactive-assay form not included) EVVAATPTSLLISWRHPHFPTRYYRITYGETGGNSPVQEFTVPLQPPTATISGLKPGVDYTITGYAVTEEWNGRVLMTPISINYRT |  |  | Binding to 1 nM KDR, % [1]: 51%; Binding to 1 nM FLK, % [2]: 10%
3 | E28 (designed binder, Del 1-8 10Fn3 clone; Flag-tagged in vitro translated protein in the radioactive assay; tag left out) EVVAATPTSLLISWRHPHFPTRYYRITYGETGGNSPVQEFTVPLQPPTATISGLKPGVDYTITGYAVTLERNGRELMVPISINYRT |  |  | Kd [3]: < 1.6 nM; Kd [4]: 2.1 nM
4 | K2 (designed binder, Del 1-8) EVVAATPTSLLISWRHPHFPTRYYRITYGETGGNSPVQEFTVPLQPPTATISGLKPGVDYTITGYAVTDGENGQFLLVPISINYRT | 1.19 nM | 48% | 
5 | K3 (designed binder, Del 1-8) EVVAATPTSLLISWRHPHFPTRYYRITYGETGGNSPVQEFTVPLQPPTATISGLKPGVDYTITGYAVTAGWDDHELFIPISINYRT | 1.15 nM | 45% | 
6 | E24 (designed binder, Del 1-8 10Fn3 clone; Flag tag of the radioactive-assay form not included) EVVAATPTSLLISWRHPHFPTRYYRITYGETGGNSPVQEFTVPLQPPTATISGLKPGVDYTITGYAVTVERNDRVLFTPISINYRT |  |  | Binding to 1 nM KDR, % [1]: 24%; Binding to 1 nM FLK, % [2]: 29%
7 | K6 (designed binder, Del 1-8) EVVAATPTSLLISWRHPHFPTRYYRITYGETGGNSPVQEFTVPLQPPTATISGLKPGVDYTITGYAVTDGKDGRVLLTPISINYRT | 0.93 nM | 27% | 
8 | K8 (designed binder, Del 1-8; 279 used) EVVAATPTSLLISWRHPHFPTRYYRITYGETGGNSPVQEFTVPLQPPTATISGLKPGVDYTITGYAVTVTHNGHPLMTPISINYRT | 3.3 nM | 18% | 
9 | K7 (designed binder, Del 1-8) EVVAATPTSLLISWRHPHFPTRYYRITYGETGGNSPVQEFTVPLQPPTATISGLKPGVDYTITGYAVTSGHNDHMLMIPISINYRT | 2.2 nM | 40% | 
10 | E16 (designed binder, Del 1-8 10Fn3 clone; Flag tag of the radioactive-assay form not included) EVVAATPTSLLISWRHPHFPTRYYRITYGETGGNSPVQEFTVPLQPPTATISGLKPGVDYTITGYAVTVEENGRQLMTPISINYRT |  |  | Binding to 1 nM KDR, % [1]: 35%; Binding to 1 nM FLK, % [2]: 0%
11 | K4 (designed binder, Del 1-8) EVVAATPTSLLISWRHPHFPTRYYRITYGETGGNSPVQEFTVPLQPPTATISGLKPGVDYTITGYAVTAGYNDQILMTPISINYRT | 1.95 nM | 38% | 
12 | K11 (designed binder, Del 1-8) EVVAATPTSLLISWRHPHFPTRYYRITYGETGGNSPVQEFTVPLQPPTATISGLKPGVDYTITGYAVTQAPNDRVLYTPISINYRT | 1.16 nM | 24% | 
13 | K9 (designed binder, Del 1-8) EVVAATPTSLLISWRHPHFPTRYYRITYGETGGNSPVQEFTVPLQPPTATISGLKPGVDYTITGYAVTFGLYGKELLIPISINYRT | 1.8 nM | 35% | 
14 | E20 (designed binder, Del 1-8 10Fn3 clone; Flag tag of the radioactive-assay form not included) EVVAATPTSLLISWRHPHFPTRYYRITYGETGGNSPVQEFTVPLQPPTATISGLKPGVDYTITGYAVTVERNGQVLYTPISINYRT |  |  | Binding to 1 nM KDR, % [1]: 43%; Binding to 1 nM FLK, % [2]: 11%
15 | E17 (designed binder, Del 1-8 10Fn3 clone; Flag tag of the radioactive-assay form not included) EVVAATPTSLLISWRHPHFPTRYYRITYGETGGNSPVQEFTVPLQPPTATISGLKPGVDYTITGYAVTVEENGRVLNTPISINYRT |  |  | Binding to 1 nM KDR, % [1]: 32%; Binding to 1 nM FLK, % [2]: 10%
16 | K12 (designed binder, Del 1-8) EVVAATPTSLLISWRHPHFPTRYYRITYGETGGNSPVQEFTVPLQPPTATISGLKPGVDYTITGYAVTDVYNDHEIKTPISINYRT | 0.62 nM | 29% | 
17 | E27 (designed binder, Del 1-8 10Fn3 clone; Flag tag of the radioactive-assay form not included) EVVAATPTSLLISWRHPHFPTRYYRITYGETGGNSPVQEFTVPLQPPTATISGLKPGVDYTITGYAVTVERNGHTLMTPISINYRT |  |  | Binding to 1 nM KDR, % [1]: 37%; Binding to 1 nM FLK, % [2]: 9%
18 | E3 (designed binder, Del 1-8 10Fn3 clone; Flag-tagged in vitro translated protein in the radioactive assay; tag left out) EVVAATPTSLLISWRHPHFPTRYYRITYGETGGNSPVQEFTVPLQPPTATISGLKPGVDYTITGYAVTDGRNDRKLMVPISINYRT |  |  | Kd [3]: < 1 nM; Kd [4]: 5.4 nM
19 | K15 (designed binder, Del 1-8) EVVAATPTSLLISWRHPHFPTRYYRITYGETGGNSPVQEFTVPLQPPTATISGLKPGVDYTITGYAVTEVHHDREIKTPISINYRT | 0.35 nM | 25% | 
20 | K1 (designed binder, Del 1-8) EVVAATPTSLLISWRHPHFPTRYYRITYGETGGNSPVQEFTVPLQPPTATISGLKPGVDYTITGYAVTMGLYGHELLTPISINYRT | 0.55 nM | 48% | 
21 | K13 (designed binder, Del 1-8; 246 used) EVVAATPTSLLISWRHPHFPTRYYRITYGETGGNSPVQEFTVPLQPPTATISGLKPGVDYTITGYAVTLALKGHELLTPISINYRT | 0.58 nM | 17% | 
22 | K10 (designed binder, Del 1-8) EVVAATPTSLLISWRHPHFPTRYYRITYGETGGNSPVQEFTVPLQPPTATISGLKPGVDYTITGYAVTTGPNDRLLFVPISINYRT | 0.57 nM | 33% | 
23 | E9 (designed binder, Del 1-8 10Fn3 clone; Flag-tagged in vitro translated protein in the radioactive assay; tag left out) EVVAATPTSLLISWRHPHFPTRYYRITYGETGGNSPVQEFTVPLQPPTATISGLKPGVDYTITGYAVTEERNGRTLRTPISINYRT |  |  | Kd [3]: 2.4 nM; Kd [4]: < 1.4 nM
24 | E14 (designed binder, Del 1-8 10Fn3 clone; Flag tag of the radioactive-assay form not included) EVVAATPTSLLISWRHPHFPTRYYRITYGETGGNSPVQEFTVPLQPPTATISGLKPGVDYTITGYAVTLERNGQVLFTPISINYRT |  |  | Binding to 1 nM KDR, % [1]: 33%; Binding to 1 nM FLK, % [2]: 11%
25 | K5 (designed binder, Del 1-8) EVVAATPTSLLISWRHPHFPTRYYRITYGETGGNSPVQEFTVPLQPPTATISGLKPGVDYTITGYAVTMGPNDNELLTPISINYRT | 1.54 nM | 47% | 
26 | E5 (designed binder, Del 1-8 10Fn3 clone; Flag-tagged in vitro translated protein in the radioactive assay; tag left out) EVVAATPTSLLISWRHPHFPTRYYRITYGETGGNSPVQEFTVPLQPPTATISGLKPGVDYTITGYAVTDGQNGRLLNVPISINYRT |  |  | Kd [3]: < 0.4 nM; Kd [4]: 3.2 nM
27 | K14 (designed binder, Del 1-8) EVVAATPTSLLISWRHPHFPTRYYRITYGETGGNSPVQEFTVPLQPPTATISGLKPGVDYTITGYAVTREENDHELLIPISINYRT | 0.57 nM | 20% | 
